Results taken from paper PMC7110144.

What was measured:
[1] = target: His-CAL1(1-50) (Drosophila melanogaster) (UniProt Q9VEN2); assay: SEC-MALS; complexes refolded from recombinant proteins; Superdex 200 increase 10/300 GL, 50 mM HEPES pH 8.0, 2 M NaCl, 1 mM TCEP, 22°C; 100 µl of 1-5 mg/ml
[2] = target: His-CAL1(1-160) (Drosophila melanogaster) (UniProt Q9VEN2); assay: as above
His-CAL1(1-160) (Drosophila melanogaster), sequence (Q9VEN2 entry or part of it): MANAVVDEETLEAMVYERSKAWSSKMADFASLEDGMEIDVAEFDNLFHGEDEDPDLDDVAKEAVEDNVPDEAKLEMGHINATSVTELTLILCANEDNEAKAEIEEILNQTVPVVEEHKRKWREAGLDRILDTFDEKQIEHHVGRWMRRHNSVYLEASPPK

CENP-A(101-225)-H4 (from UniProt Q9V6Q2 101-225; P84040 1-103) (complex), sequence (Q9V6Q2 101-225, one chain of several): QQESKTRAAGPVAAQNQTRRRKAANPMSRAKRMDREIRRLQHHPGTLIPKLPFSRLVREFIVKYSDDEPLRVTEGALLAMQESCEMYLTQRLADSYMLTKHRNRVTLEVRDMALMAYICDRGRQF
CENP-A(101-225)-H4 (from UniProt Q9V6Q2 101-225; P84040 1-103) (complex; other documents disagree on this pair), sequence (Q9V6Q2 101-225, one chain of several): as above
His-CAL1(1-50) (Drosophila melanogaster), sequence (Q9VEN2 entry or part of it): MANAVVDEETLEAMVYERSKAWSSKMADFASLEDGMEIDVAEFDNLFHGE
CENP-A(144-225)-H4, sequence (Q9V6Q2 144-225, one chain of several): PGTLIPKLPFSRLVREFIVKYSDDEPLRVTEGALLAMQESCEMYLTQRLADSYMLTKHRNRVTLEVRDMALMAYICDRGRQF

Substance | stoichiometry N (CAL1:CENP-A:H4 = 1:1:1) [1] | stoichiometry N (CAL1:CENP-A:H4 = 1:1:1) [2]
CENP-A(101-225)-H4 (from UniProt Q9V6Q2 101-225; P84040 1-103) (complex) | 1 | –
CENP-A(101-225)-H4 (from UniProt Q9V6Q2 101-225; P84040 1-103) (complex; other documents disagree on this pair) | – | 1
CENP-A(144-225)-H4 (from UniProt Q9V6Q2 144-225; P84040 1-103) (complex; other documents disagree on this pair) | – | 1
